What was measured:
[1] = biological target: GST-PERK, wild-type PERK kinase domain fused to GST (active, autophosphorylated) (mouse) (UniProt Q9Z2B5); experiment: pull-down
[2] = biological target: GST-PERK, wild-type PERK kinase domain fused to GST (active, autophosphorylated) (mouse) (UniProt Q9Z2B5)

Chain of UniProt Q9Z2B5 (Q9Z2B5 537-1114): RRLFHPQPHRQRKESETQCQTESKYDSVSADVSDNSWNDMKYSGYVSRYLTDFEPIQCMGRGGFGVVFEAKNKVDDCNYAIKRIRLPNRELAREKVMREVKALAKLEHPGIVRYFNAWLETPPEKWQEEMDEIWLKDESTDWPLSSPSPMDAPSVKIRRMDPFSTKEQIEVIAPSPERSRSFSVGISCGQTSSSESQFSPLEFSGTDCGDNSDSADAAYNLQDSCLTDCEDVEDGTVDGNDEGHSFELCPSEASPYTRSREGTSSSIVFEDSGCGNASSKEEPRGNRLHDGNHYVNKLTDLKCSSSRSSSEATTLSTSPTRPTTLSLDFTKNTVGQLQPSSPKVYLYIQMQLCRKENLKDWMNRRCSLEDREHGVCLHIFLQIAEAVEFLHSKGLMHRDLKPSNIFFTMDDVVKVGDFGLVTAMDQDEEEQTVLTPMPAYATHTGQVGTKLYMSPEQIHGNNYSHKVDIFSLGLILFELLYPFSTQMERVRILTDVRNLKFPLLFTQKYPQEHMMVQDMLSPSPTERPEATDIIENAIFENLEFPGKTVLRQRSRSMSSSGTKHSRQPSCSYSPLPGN

eIF2α-NTD (NH2-terminal domain of eIF2α, residues 1-185, three solubilizing mutations, nonphosphorylated) (domain or fragment)
KCl concentration at the peak of elution [1]: 225 mM KCl | stoichiometry N (eIF2α-NTD per PERK) [2]: > 1

phosphorylated eIF2α-NTD (P–eIF2α-NTD, phosphorylated by PERK on serine 51) (domain or fragment)
KCl concentration at the peak of elution [1]: 125 mM KCl
